The values that follow are results of earlier work, collected in paper PMC10231660.

Like-named read-outs stand apart in the source and are kept apart here.

For data set [1], the target named is MC1R (UniProt Q01726).
Data set [2] concerns the target BMPR1A ECD (Homo sapiens) (UniProt P36894).
The target in data set [3] is ZNRF3 (Homo sapiens) (UniProt Q9ULT6).
The target is the same in data set [4]. This is another data set of the same source.
Data set [5] has the same target. This is another data set of the same source.
Data set [6] shares this target. This is another data set of the same source.

Chain of UniProt Q9ULT6 (Q9ULT6 56-219): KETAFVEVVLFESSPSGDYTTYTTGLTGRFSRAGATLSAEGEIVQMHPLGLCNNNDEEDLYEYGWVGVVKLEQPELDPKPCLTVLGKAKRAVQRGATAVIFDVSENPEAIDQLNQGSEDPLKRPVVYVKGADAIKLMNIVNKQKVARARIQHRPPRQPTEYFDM
Chain of UniProt P36894 (P36894 24-152): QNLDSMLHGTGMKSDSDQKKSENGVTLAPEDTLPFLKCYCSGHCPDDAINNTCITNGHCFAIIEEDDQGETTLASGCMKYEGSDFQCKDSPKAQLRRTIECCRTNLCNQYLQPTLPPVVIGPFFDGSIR
Chain of UniProt Q01726 (Q01726 whole entry, the tested form may be a part): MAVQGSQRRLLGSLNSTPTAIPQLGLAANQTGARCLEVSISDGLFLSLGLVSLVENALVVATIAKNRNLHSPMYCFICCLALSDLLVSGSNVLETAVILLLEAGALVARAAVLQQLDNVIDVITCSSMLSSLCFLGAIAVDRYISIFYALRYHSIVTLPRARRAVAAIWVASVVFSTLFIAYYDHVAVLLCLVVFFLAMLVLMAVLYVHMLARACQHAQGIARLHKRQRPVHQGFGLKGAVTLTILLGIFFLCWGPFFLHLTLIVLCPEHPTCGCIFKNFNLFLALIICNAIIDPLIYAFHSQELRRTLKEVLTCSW

Broadly, the Kd is the concentration at which binding is half-saturated. On to ASP CTD (from UniProt P42127), for which the Kd in data set [1] was 1 nM.

For RSPO2 (from UniProt Q6UXX9), in data set [2], the Kd was 4.8 nM.

RSPO1 FU1 (from UniProt Q2MKA7): in data set [3], the Kd is 6800 nM.

On to RSPO2 FU1 (from UniProt Q6UXX9), for which the Kd in data set [4] was 25 nM.

RSPO4 FU1 (from UniProt Q2I0M5): in data set [5], the dissociation constant Kd is 300000 nM.

For the substance RSPO3 FU1 (from UniProt Q9BXY4), the Kd in data set [6] is 60 nM.
